According to patent publication US20150098945A1 (Daiichi Sankyo, published 2015):

Biological target: T1, N-terminal FLAG-tagged human ROBO4 extracellular region/domain deletion variant hROBO4-132 (human, UniProt Q8WZ75 132-1007)
T1 construct: On transfected HEK293 cells; also called pCI-FLAG-hROBO4-132; pCI-hROBO4-132
T1 sequence: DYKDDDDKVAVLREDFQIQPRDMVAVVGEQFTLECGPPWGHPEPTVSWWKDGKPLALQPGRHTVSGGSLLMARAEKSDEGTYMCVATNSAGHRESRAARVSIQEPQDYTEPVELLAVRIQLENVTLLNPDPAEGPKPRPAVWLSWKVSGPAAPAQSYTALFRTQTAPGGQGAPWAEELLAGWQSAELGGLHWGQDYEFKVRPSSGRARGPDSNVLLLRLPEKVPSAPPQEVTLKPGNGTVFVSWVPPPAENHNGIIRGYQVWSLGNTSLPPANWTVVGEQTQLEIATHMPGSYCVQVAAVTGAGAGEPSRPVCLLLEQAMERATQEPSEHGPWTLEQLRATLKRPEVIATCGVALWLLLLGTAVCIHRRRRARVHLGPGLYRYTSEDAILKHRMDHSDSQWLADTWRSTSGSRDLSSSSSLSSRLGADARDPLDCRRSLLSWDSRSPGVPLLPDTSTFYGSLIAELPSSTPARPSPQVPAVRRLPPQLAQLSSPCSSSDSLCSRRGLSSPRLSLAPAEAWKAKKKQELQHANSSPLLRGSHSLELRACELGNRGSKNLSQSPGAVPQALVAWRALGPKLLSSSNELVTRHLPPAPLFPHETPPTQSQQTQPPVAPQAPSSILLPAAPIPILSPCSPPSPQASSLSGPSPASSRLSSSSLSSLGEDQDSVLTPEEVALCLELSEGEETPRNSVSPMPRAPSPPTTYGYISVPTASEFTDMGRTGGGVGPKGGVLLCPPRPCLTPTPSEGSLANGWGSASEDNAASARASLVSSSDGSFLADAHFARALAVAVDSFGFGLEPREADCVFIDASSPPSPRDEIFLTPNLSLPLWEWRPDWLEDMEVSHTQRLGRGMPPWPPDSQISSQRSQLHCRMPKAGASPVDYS
Assay: flow cytometry, HEK293 cells transfected with pCI-FLAG-hROBO4-132, antibody at 10 µg/mL, anti-mouse IgG FITC; control histogram IgG (Mouse IgG2a)
Experimental: HEK293 cells were inoculated at a concentration of 1.5×10⁶ cells/dish to a 60-mm dish (manufactured by Corning Inc.) and cultured overnight in a DMEM medium containing 10% FBS at 37° C. under 5% CO₂ conditions. […] On the next day, the expression vector-transfected cells were treated with TrypLE Express (manufactured by Life Technologies Corp.), washed with PBS containing 5% FBS, and then suspended in PBS containing 5% FBS. The obtained cell suspension was used in flow cytometry analysis.
Each cell suspension prepared in 4)-5-1 was centrifuged, and the supernatant was removed. Then, MAb1, a positive control Monoclonal ANTI-FLAG M2 antibody produced in mouse, or a negative control Mouse IgG2a was added at a concentration of 10 μg/mL to 2×10⁵ expression vector-transfected cells, and the resulting suspension was left standing at 4° C. for 1 hour. The cells were washed once with PBS containing 5% FBS. Then, Anti-Mouse IgG FITC conjugate diluted 1000-fold with PBS containing 5% FBS was added thereto, and the resulting suspension was left standing at 4° C. for 1 hour. […] Data was analyzed using Flowjo. The histogram of FITC fluorescence intensity was prepared. The antibody was determined to bind to a cell when the histogram of MAb1 was shifted to a stronger fluorescence intensity region compared with the histogram of the negative control Mouse IgG2a. […]

B1: anti-ROBO4 mouse monoclonal antibody MAb1 (antibody, mouse IgG1, V domains shown)
VH: EVQLVESGGGLVKPGGSLKLSCAASGFTFSTYAMSWVRQTPEKRLEWVATISNGGTYTYYPDSVKGRFTISRDNAENTLYLQMSSLRSEDTAMYFCARLIYYDYLDYWGHGTTLTVSS
VL: DAVMTQTPLSLPVSLGDQASISCRSSQSLENSNGNTYLNWYFQKPGQSPQLLIYRVSNRFSGVLDRFSGSGSGTDFTLKISRVEAEDFGVYFCLQVTHVPWTFGGGTKLEIKR
notes: Mouse IgG1 (gamma1), kappa light chain, purified from hybridoma supernatant; also called parent antibody MAb1
B1: binds.
